Data from patent US9283300B2, “Use of midkine protein and the protein-containing medical device” (GENERAL REGENERATIVES, LTD, priority 2009, dated 2016).

Experiments:
[1] = test system: cartilage of normal rat (articular, ear, tracheal, intervertebral disc); assay: rhMK effect on cartilage thickness of normal rats (subcutaneous injection, histology); type: in vivo; settings: rhMK 175 μg/kg s.c. daily for a week
Description: Method. 8-weeks-old male C57BL/6J mice were injected subcutaneously with recombinant human MK (rhMK) or control saline. The injection volume was 0.5 ml, given daily for a week. The mice were grouped (3 animals per group): Saline (NS) group, rhMK groups injected with various dosages at 10, 33, 100, 300, 900 μg/kg. Rats were injected with saline or rhMK (175 μg/kg) daily for a week. Rabbits were injected with saline or rhMK (92.5 μg/kg) daily for two week. Histological observation and evaluation. The knee joint tissues of all mice and rats were fixed in 10% (v/v) formalin for 1 day, the tissues of rabbits were fixed for 2 days. The fixed tissues were subjected to demineralization in liquid (7% AlCl3.6H2O, 5% methanoic acid, 8.5% HCl) 4 days for mouse and rats issues, and 10 days for rabbit tissues. The demineralized tissues were subjected to dehydration by gradient ethanol, and treated for transparency by xylene, and embedded in wax. Tissue sections were prepared by the paraffin slicing machine (Laica), and stained with hemotoxylin/eosin or Safranine O/fast green staining. Slides were observed under microscope and analyzed. The thickness of cartilage tissues were measured by the vernier caliper on microscope. Three tissue sections from each sample were measured and analyzed statisticaly. The distance between surface of cartilage to subchondral tide line was measured at ½ position of femoral condyle to denote the thickness of knee-joint cartilage. The thickness of cartilage at central part of ears was measured to denote the thickness of ear elastic cartilage. The distance between out surface of annulus to nucleus of the intervertebral disc was measured to denote the thickness of thoracic intervertebral disc (T2-3). To verify the results of rhMk in mice, we performed the same experiments in vivo using commonly used laboratory animals, rat and rabbit. Rats were injected subcutaneously with rhMK at 175 μg/kg/day for one week, and rabbits was injected subcutaneously 92.5 ug/kg/day for two weeks. […] The injection dose of rhMK: mice was injected subcutaneously 300 μg/kg daily for a week; rats were injected 175 μg/kg daily for a week; and New Zealand rabbits was injected 92.5 μg/kg daily for two weeks. Three animals per group were analyzed.

[2] = test system: partial-thickness injury of rabbit knee cartilage; assay: Partial-thickness cartilage defect of adult rabbit knee joint, intra-articular rhMK; type: in vivo, New Zealand white rabbits; settings: adult rabbit knee cartilage partial-thickness injury model, 4 and 9 weeks after surgery, versus saline side
Description: Method. 9˜10-month-old male New Zealand white rabbits (3.0˜3.5 kg weight) were anesthetized with 3% pentobarbital sodium (30 mg/kg) by ear vein injection. After anesthesia, the skin was prepared on both sides of the knees. With conventional surgical sterilization and under sterile conditions, the inner side of the knees was cut to expose the femoral condyle surface. A hand-drill was used to make a partial-thickness cartilage injury of 3 mm in diameter on the femoral condyle surface. The partial-thickness injury was created by the criterion of no bleeding in the injured cartilage hole. The wound was sutured with 4-0 lines. 400,000 units penicillin was injected every day for one week to prevent the wound site infection. 24 h after the surgery, normal saline or rhMK was injected into the knee-articular cavity. Partial-thickness cartilage damages were created on both rabbit knees. One knee received 0.5 ml saline as control side, while 0.5 ml rhMK was given into the other knees as treatment side. The injections were given three times a week, for 2 weeks totally. The rabbits were kept in cage and allowed freedom of movement without the knee fixed. 4 and 9 weeks after the surgery, rabbits were sacrificed. The knee-joint cartilage tissues were removed for routine biopsy, H&E, and toluidine blue staining, and their histological changes were analyzed under microscope.

[3] = test system: rat primary articular chondrocyte; assay: MTT proliferation assay, primary chondrocytes in monolayer; type: cell-based; settings: for light absorbance at 490 nm in MTT assay: Articular chondrocyte, 48 h, mean ± SD
Description: (§1) 1. Preparation of primary chondrocyte. The 8-week-old male SD rats were sacrificed under sterile conditions. The articular cartilage, fibrocartilage and elastic cartilage tissue were isolated from the femur joints, meniscus and outer ear respectively using a scalpel. The isolated cartilage were cut into small pieces, washed twice with phosphate buffered saline (PBS), and digested with trypsin (0.25% (w/v) trypsin/0.02% (w/v) EDTA) at 37° C. for 30 min. The articular cartilage and elastic cartilage were further digested with 0.2% type II collagenase for additional 16 h, and the fibrocartilage were further digested with 0.15% type I collagenase for additional 16 h. After digestion, three chondrocytes were passed through 100 μm filter (Falcon, USA) into 15 ml centrifuge tubes, centrifuged at room temperature at 2000 rpm for 5 min. Cells were resuspended in DMEM containing 10% FBS (fetal bovine serum). Trypan blue staining of the freshly isolated cells was used to monitor the percentage of live cells under the microscope. When the number of live cells is more than 95%, it was used for subsequent experiments.
(§2) 2. MTT assay. Three types of primary chondrocytes were suspended at a density of 5×10^4 cells/ml in DMEM containing 10% FBS. Cells were seeded into a 96-well plate (100 μl per well) and cultured at 37° C. under 5% CO2 for 48 h. The cells were washed with serum-free DMEM medium once. Different concentrations of rhMK (0.5, 1.0, 3.0, 5.0, 9.0 μg/ml) in DMEM (containing 0.5% FBS) were added to each well and the cells were cultured for additional 48 h. After incubation, the medium was replaced with 100 μl serum-free DMEM medium and 20 μl MTT solution (0.5 mg/ml, in PBS), incubated at 37° C. under 5% CO2 for 4 h. After removing the liquid, 120 μl DMSO was added to dissolve the MTT crystals by shaking for 1 min on a micro-plate oscillator. Light absorbance at 490 nm was measured using a microplate reader (BIO-TEK, USA).

[4] = test system: rat primary auricular (ear elastic cartilage) chondrocyte; assay: as above; type: cell-based; settings: for light absorbance at 490 nm in MTT assay: Auricular chondrocyte, 48 h, mean ± SD
Description: as §1, §2

[5] = test system: rat primary fibrochondrocyte; assay: as above; type: cell-based; settings: for light absorbance at 490 nm in MTT assay: Fibrochondrocyte, 48 h, mean ± SD
Description: as §1, §2

B1: rhMK: recombinant human midkine mature protein (SEQ ID NO.1) expressed in E. coli and purified by ion-exchange chromatography (protein, listed as Homo sapiens)
chain: MKKKDKVKKGGPGSECAEWAWGPCTPSSKDCGVGFREGTCGAQTQRIRCRVPCNWKKEFGADCKYKFENWGACDGGTGTKVRQGTLKKARYNAQCQETIRVTKPCTPKTKAKAKAKKGKGKD
Work on B1 yielded a Cartilage thickness, Ear [1] of 107 ± 3.4 µm, a Cartilage thickness, Femoral condyle [1] of 263 ± 54.4 µm and a Cartilage thickness, Intervertbral disc (T2-3) [1] of 659 ± 40.8 µm. For the same molecule, the Cartilage thickness, Trachea [1] was 246 ± 9.1 µm, the “repair of injured cartilage (histology)” value [2] was “repairs the injured cartilage with regenerated cartilage tissues” and the “light absorbance at 490 nm in MTT assay” value ([3]; rhMK 0.5 μg/ml) was 0.33 ± 0.02. The “light absorbance at 490 nm in MTT assay” value ([3]; rhMK 1.0 μg/ml) was 0.40 ± 0.01, the “light absorbance at 490 nm in MTT assay” value ([3]; rhMK 3.0 μg/ml) was 0.38 ± 0.01 and the “light absorbance at 490 nm in MTT assay” value ([3]; rhMK 5.0 μg/ml) was 0.30 ± 0.01. For the same molecule, the “light absorbance at 490 nm in MTT assay” value ([3]; rhMK 9.0 μg/ml) was 0.39 ± 0.01, the “lowest effective dose of rhMK (proliferation, MTT)” value (“lowest effective dose of rhMK” below) ([3]; articular chondrocytes, monolayer) was 1 µg/mL and the “light absorbance at 490 nm in MTT assay” value ([4]; rhMK 0.5 μg/ml) was 0.52 ± 0.05. The “light absorbance at 490 nm in MTT assay” value ([4]; rhMK 1.0 μg/ml) was 0.54 ± 0.02, the “light absorbance at 490 nm in MTT assay” value ([4]; rhMK 3.0 μg/ml) was 0.56 ± 0.01 and the “light absorbance at 490 nm in MTT assay” value ([4]; rhMK 5.0 μg/ml) was 0.56 ± 0.02. The “light absorbance at 490 nm in MTT assay” value ([4]; rhMK 9.0 μg/ml) was 0.56 ± 0.02, the “lowest effective dose of rhMK” value ([4]; ear elastic cartilage cells, monolayer) was 0.5 µg/mL and the “light absorbance at 490 nm in MTT assay” value ([5]; rhMK 0.5 μg/ml) was 0.42 ± 0.02. For the same molecule, the “light absorbance at 490 nm in MTT assay” value ([5]; rhMK 1.0 μg/ml) was 0.43 ± 0.02, the “light absorbance at 490 nm in MTT assay” value ([5]; rhMK 3.0 μg/ml) was 0.47 ± 0.00 and the “light absorbance at 490 nm in MTT assay” value ([5]; rhMK 5.0 μg/ml) was 0.45 ± 0.00. The “light absorbance at 490 nm in MTT assay” value ([5]; rhMK 9.0 μg/ml) was 0.45 ± 0.00 and the “lowest effective dose of rhMK” value ([5]; fibrochondrocyte, monolayer) was 3 µg/mL.
